Numbering of substitutions follows the chain as printed.
B1: A12 (antibody, V domains shown)
VH: QVQLVQSGAEVKKPGASVKVSCKASGYNFNDYYIHWVRQAPGQGLEWMGWISAYNGNTNYAQKLQGRVTMTRDTSTSTVYMELSSLRSEDTAVYYCARDGWYCSSSSCYTGSDYWGQGTLVTVSS
VL: DIQMTQSPSSLSASVGDRVTITCRASQSISNYLNWYQQKPGKAPKLLIYGASTLHSGVPSRFSGSGSGTDFTLTISSLQPEDFATYYCQQSYSTPFTFGPGTKVDIK
notes: phage campaign
B2: A15 (antibody, V domains shown)
VH: QVQLVQSGAEVKKPGASVKVSCKASGGTFSNYGLTWVRQAPGQGLEWMGWINLNSGGTYYAQKFQGRVTMTRDTSTSTVYMELSSLRSEDTAVYYCARDRYSSGWYEGDAFDIWGQGTMVTVSS
VL: B1 VL with S28G, Y32W, N34A, G50A, T53S, H55Q, F96W
notes: phage campaign
B3: E5 (antibody, V domains shown)
VH: QVQLVQSGAEVKKPGSSVKVSCKASGYTFTSYGINWVRQAPGQGLEWMGWINPNSGDTLYAQNFQGRVTITADESTSTAYMELSSLRSEDTAVYYCARGPEPYWYFDLWGRGTLVTVSS
VL: EIVMTQSPATLSVSPGERATLSCRASQNIDSRFLAWYQQKPGQAPRLLIYGASTRATGIPARFSGSGSGTEFTLTISSLQSEDFAVYYCQQSFSTPLTFGGGTKVEIK
B4: A1 (antibody, V domains shown)
VH: QVQLVQSGAEVKKPGSSVKVSCKASGYTFINHDINWVRQAPGQGLEWMGWMNPNSGNTGYAQKFQGRVTITADESTSTAYMELSSLRSEDTAVYYCARDRRGSYYGLMDWFDPWGQGTLVTVSS
VL: DIQMTQSPSSLSASVGDRVTITCRASQSISRWLAWYQQKPGKAPKLLIYDASNLETGVPSRFSGSGSGTDFTLTISSLQPEDFATYYCQQSYSTPSFGQGTKVEIK
notes: phage campaign
B5: A2 (antibody, V domains shown)
VH: EVQLLESGGGLVKPGGSLRLSCAASGFTFSDYYMSWVRQAPGKGLEWVSSISIGGGGTYYADSVKGRFTISRDDSKNTLYLQMNSLRAEDTAVYYCASHGFGARKMDFWGQGTTVTVSS
VL: DIQMTQSPSSLSASVGDRVTITCRASQSIRSYVNWYQQKPGKAPKLLIYDASNLETGVPSRFSGSGSGTDFTLTISSLQPEDFATYYCQQSYSPPITFGQGTKVEIK
notes: phage campaign
B6: E21 (antibody, V domains shown)
VH: QVQLVQSGAEVKKPGSSVKVSCKASGYTFSNYDINWVRQAPGQGLEWMGGIIPIFGTANYALKFQGRVTITADESTSTAYMELSSLRSEDTAVYYCARGGPWLYFDYWGQGTLVTVSS
VL: B1 VL with N31T, G50A, H55Q, T94S, F96L, P100Q, V104L, D105E
notes: phage campaign
B7: A14 (antibody, V domains shown)
VH: QVQLVQSGAEVKKPGASVKVSCKASGYTFTSYYMYWVRQAPGQGLEWMGWMNPNSGNTGFAQKFQGRVTMTRDTSTSTVYMELSSLRSEDTAVYYCASGYYDSWSGETDYGMDVWGQGTTVTVSS
VL: B5 VL with R30S, V33L, N53T, T56S, S93K, P94T, I96Y, V104L
notes: phage campaign
B8: A3 (antibody, V domains shown)
VH: EVQLLESGGGLVQPGGSLRLSCAASGFTFSRYEMNWVRQAPGKGLEWVAGISYDGSYEYYADSVKGRFTISRDNSKNTLYLQMNSLRAEDTAVYYCAKGSYGYDAFDIWGQGTMVTVSS
VL: B5 VL with R30S, Y32W, V33L, N34A, D50A, A51T, N53T, E55Q, T56S, I96Y
notes: phage campaign
B9: A9 (antibody, V domains shown)
VH: QVQLVQSGAEVKKPGSSVKVSCKASGYTFTDYAISWVRQAPGQGLEWMGGITPVFGTPSYAQKFQGRVTITADESTSTAYMELSSLRSEDTAVYYCARGWELRRDPFDYWGQGTLVTVSS
VL: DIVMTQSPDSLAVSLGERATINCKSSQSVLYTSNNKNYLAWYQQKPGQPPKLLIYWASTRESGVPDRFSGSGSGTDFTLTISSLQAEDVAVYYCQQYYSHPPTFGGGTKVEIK
notes: phage campaign
B10: A5 (antibody, V domains shown)
VH: QVQLVQSGAEVKKPGSSVKVSCKASGYTFTDYYMNWVRQAPGQGLEWMGGIIPIFGTADYAQRFQGRVTITADESTSTAYMELSSLRSEDTAVYYCARDAGYYGMDVWGQGTLVTVSS
VL: EIVMTQSPATLSVSPGERATLSCRASQSVSNYLAWYQQKPGQAPRLLIYGASTRATGIPARFSGSGSGTEFTLTISSLQSEDFAVYYCQQFDDLPLTFGPGTKVEIK
notes: phage campaign
B11: A4 (antibody, V domains shown)
VH: QVQLVQSGAEVKKPGSSVKVSCKASGYTFTGYAVNWVRQAPGQGLEWMGGIIPIFGTANYAQKFQGRVTITADESTSTAYMELSSLRSEDTAVYYCARNLGYSSGWSGYYYGMDVWGQGTMVTVSS
VL: EIVMTQSPATLSVSPGERATLSCRASQSVSSNYLAWYQQKPGQAPRLLIYGASTRATGIPARFSGSGSGTEFTLTISSLQSEDFAVYYCQQYGSSSFTFGPGTKLEIK
notes: phage campaign
B12: A6 (antibody, V domains shown)
VH: QVQLVQSGAEVKKPGSSVKVSCKASGYTFINYDINWVRQAPGQGLEWMGGIIPIFGAPVYAQDFQGRVTITADESTSTAYMELSSLRSEDTAVYYCAIADGAGWFDPWGQGTLVTVSS
VL: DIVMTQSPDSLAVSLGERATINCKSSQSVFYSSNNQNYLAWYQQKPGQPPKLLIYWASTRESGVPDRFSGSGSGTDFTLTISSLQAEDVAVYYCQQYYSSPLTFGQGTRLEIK
notes: phage campaign
B13: A16 (antibody, human IgG1, kappa, L234A L235A, V domains shown)
VH: B12 VH with T28N, I30L, I34V, A57T, P58A, V59N, D63K, I98T, A99G, D100V
VL: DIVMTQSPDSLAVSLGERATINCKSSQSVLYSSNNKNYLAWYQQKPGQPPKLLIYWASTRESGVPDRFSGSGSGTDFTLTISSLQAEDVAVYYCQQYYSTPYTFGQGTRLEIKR
B14: A7 (antibody, V domains shown)
VH: B12 VH with I30T, N31S, A57T, P58A, V59N, D63K, S77G
VL: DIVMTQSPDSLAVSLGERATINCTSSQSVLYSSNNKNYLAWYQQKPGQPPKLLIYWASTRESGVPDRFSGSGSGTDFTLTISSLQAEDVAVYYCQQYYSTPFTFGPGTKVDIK
notes: phage campaign

Biological target: T1, murine PILRB, ectopically expressed on 293 cells (murine, UniProt Q2YFS2 29-224)
T1 construct: whole, on cells; also called mB
T1 sequence (Q2YFS2 29-224): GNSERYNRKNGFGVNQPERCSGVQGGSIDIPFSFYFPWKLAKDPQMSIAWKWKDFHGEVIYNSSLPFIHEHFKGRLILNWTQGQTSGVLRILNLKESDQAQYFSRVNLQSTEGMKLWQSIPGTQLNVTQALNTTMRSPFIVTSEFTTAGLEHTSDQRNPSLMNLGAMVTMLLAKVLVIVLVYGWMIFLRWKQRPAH
Assay: flow cytometry, 293 cells expressing target
Description: (§1) Briefly, conditioned media containing antibodies were incubated with 293 cells for 30 min at 4° C., washed twice, and then detected with anti-mouse IgG Alexa 647.

Binder | binding result
B1 | no binding
B2 | no binding
B3 | no binding
B4 | no binding
B5 | no binding
B6 | no binding
B7 | no binding
B8 | no binding
B9 | no binding
B10 | no binding
B11 | no binding
B12 | no binding
B13 | no binding
B14 | no binding

Biological target: T2, human PILRA, G78 variant, ectopically expressed on 293 cells (human, UniProt Q9UKJ1 20-303)
T2 construct: the cells are labelled G78; also called hA G78 OE; hA
T2 sequence (Q9UKJ1 other isoform, or with tags, fused parts or gaps mutant): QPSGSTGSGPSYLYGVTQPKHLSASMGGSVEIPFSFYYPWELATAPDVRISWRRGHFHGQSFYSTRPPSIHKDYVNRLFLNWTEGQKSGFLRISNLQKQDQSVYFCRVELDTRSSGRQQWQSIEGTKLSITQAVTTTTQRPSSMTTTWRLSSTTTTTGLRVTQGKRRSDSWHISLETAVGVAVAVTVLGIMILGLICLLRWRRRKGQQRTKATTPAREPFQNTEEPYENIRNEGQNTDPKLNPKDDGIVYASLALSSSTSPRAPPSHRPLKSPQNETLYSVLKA
Assay: flow cytometry, 293 cells expressing target
Description: as §1

Binder | EC50 [µg/mL]
B1 | 0.4
B2 | 0.2
B3 | 0.1
B4 | 1.9
B5 | 0.3
B6 | 0.7
B7 | 0.5
B8 | 0.1
B9 | 0.8
B10 | 3.4
B11 | 0.7
B12 | 1.7
B13 | 0.2
B14 | 0.5

Biological target: cynomolgus PILRA, ectopically expressed on 293 cells (cynomolgus monkey)
Sequence (chain, as listed by the source): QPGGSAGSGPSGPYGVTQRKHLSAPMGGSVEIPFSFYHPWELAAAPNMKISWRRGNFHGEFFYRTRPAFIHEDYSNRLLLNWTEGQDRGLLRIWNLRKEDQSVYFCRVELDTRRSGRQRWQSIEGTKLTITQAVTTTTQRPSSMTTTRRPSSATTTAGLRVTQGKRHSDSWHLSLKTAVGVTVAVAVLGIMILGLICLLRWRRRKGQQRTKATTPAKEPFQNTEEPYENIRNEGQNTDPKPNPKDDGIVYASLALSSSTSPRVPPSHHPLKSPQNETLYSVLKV
Assay: flow cytometry, 293 cells expressing target
Description: as §1

Binder | EC50 [µg/mL] | binding result
B1 | 8.6 | –
B2 | 11.1 | –
B3 | – | no binding
B4 | – | no binding
B5 | – | no binding
B6 | – | no binding
B7 | 11.5 | –
B8 | – | no binding
B9 | 14.6 | –
B10 | 2.8 | –
B11 | 1.3 | –
B12 | 0.3 | –
B13 | 0.2 | –
B14 | 0.3 | –

Biological target: T3, human PILRB, ectopically expressed on 293 cells (human, UniProt Q9UKJ0 20-227)
T3 construct: also called hB
T3 sequence (Q9UKJ0 20-227): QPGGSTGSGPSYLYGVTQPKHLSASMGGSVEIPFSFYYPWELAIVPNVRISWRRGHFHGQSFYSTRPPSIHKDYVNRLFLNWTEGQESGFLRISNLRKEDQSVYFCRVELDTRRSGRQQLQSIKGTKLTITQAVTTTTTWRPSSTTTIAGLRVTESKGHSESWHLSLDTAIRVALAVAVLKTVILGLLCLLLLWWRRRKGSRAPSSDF
Assay: flow cytometry, 293 cells expressing target
Description: as §1

Binder | EC50 [µg/mL] | binding result
B1 | 8.6 | –
B2 | 10.5 | –
B3 | 0.3 | –
B4 | – | no binding
B6 | 3.4 | –
B7 | 12.9 | –
B8 | – | no binding
B9 | – | no binding
B10 | – | no binding
B11 | – | no binding
B12 | – | no binding
B13 | – | no binding
B14 | – | no binding

Biological target: T4, murine PILRA, ectopically expressed on 293 cells (murine, UniProt Q2YFS3 32-302)
T4 construct: also called mA
T4 sequence (Q2YFS3 32-302): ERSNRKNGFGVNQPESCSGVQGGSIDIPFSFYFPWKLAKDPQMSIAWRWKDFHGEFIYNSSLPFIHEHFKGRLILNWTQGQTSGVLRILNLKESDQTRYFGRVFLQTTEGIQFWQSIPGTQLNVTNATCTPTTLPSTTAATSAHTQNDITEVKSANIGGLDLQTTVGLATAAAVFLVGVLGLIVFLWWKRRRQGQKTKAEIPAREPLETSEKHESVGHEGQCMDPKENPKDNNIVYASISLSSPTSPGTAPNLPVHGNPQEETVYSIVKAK
Assay: flow cytometry, 293 cells expressing target
Description: as §1

Binder | binding result
B1 | no binding
B2 | no binding
B3 | no binding
B4 | no binding
B5 | no binding
B6 | no binding
B7 | no binding
B8 | no binding
B9 | no binding
B10 | no binding
B11 | no binding
B12 | no binding
B13 | no binding
B14 | no binding

Biological target: T5, human PILRA, c-term His-Avi tag (human, UniProt Q9UKJ1 20-197, limits assumed)
T5 construct: not shown: C-terminal His-Avi tag
T5 sequence (Q9UKJ1 20-197 limits assumed): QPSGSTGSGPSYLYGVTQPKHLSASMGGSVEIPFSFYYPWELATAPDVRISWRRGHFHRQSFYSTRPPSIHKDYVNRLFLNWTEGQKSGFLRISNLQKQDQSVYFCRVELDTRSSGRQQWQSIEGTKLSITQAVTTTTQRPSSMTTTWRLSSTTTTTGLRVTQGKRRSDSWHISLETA
Assay: SPR (Biacore), antibody captured, PILRA as analyte
Description: Experiments were performed to determine the kinetics of anti-PILRA antibody binding to human […]. The assay is depicted in FIG. 6. A rabbit anti-PILRA was used as a positive control, and H1 LALAPS was used as a negative control. Human PILRA (human PILRA, c-term His-Avi tag, 0.68 mg/mi) was used as the antigen. The running buffer was HBSTE/0.5% BSA, pH 7.4, and the regeneration solution was 10 mM glycine-HCl (pH 2.1). In the assay, antibodies were captured at 10 μg/ml by immobilized anti-huFc or anti-msFc on a Biacore CM5 chip, and human PILRA flowed at 33, 100, and 300 nM. The surface was regenerated after each analyte, and all curves were double-referenced with buffer injections.

Binder | Kd [nM] | koff [s⁻¹] | kon [M⁻¹ s⁻¹] | t½ [min]
B1 | 19.3 | 0.0012 | 63000 | 9.6
B3 | 76.2 | 0.0061 | 80000 | –
B4 | 99.6 | 0.0038 | 38000 | –
B5 | 193 | 0.0063 | 33000 | –
B6 | 51.3 | 0.0061 | 120000 | –
B7 | 12.2 | 0.0012 | 99000 | 9.6
B8 | 93.7 | 0.0067 | 71000 | –
B9 | 150 | 0.011 | 70000 | –
B10 | 32.1 | 0.0045 | 140000 | –
B11 | 113 | 0.005 | 44000 | –
B12 | 86.5 | 0.0052 | 61000 | –
B13 | 47 | 0.0042 | 90000 | –
B14 | 75.7 | 0.0064 | 85000 | –

Biological target: T2, human PILRA, G78 variant, ectopically …
Assay: flow cytometry; blocking of NPDC1-hIgG1 binding to 293 cells expressing human PILRA G78

Binder | IC50 [µg/mL]
B2 | 0.27
B3 | 0.22
B4 | 1.9
B5 | 0.78
B6 | 0.6
B8 | 0.38
B9 | 0.6
B10 | 0.64
B11 | 0.32
B12 | 5.7
B13 | 0.38
B14 | 0.77

— patent US20240425587A1 (Alector, published 2024)
